According to patent publication US20230357420A1 (VILLARIS THERAPEUTICS, published 2023):

T1: Human BCAM protein (human, UniProt P50895 32-547, limits assumed)
T1 construct: Protein used in ELISA; also called BCAM (ELISA antigen)
T1 sequence: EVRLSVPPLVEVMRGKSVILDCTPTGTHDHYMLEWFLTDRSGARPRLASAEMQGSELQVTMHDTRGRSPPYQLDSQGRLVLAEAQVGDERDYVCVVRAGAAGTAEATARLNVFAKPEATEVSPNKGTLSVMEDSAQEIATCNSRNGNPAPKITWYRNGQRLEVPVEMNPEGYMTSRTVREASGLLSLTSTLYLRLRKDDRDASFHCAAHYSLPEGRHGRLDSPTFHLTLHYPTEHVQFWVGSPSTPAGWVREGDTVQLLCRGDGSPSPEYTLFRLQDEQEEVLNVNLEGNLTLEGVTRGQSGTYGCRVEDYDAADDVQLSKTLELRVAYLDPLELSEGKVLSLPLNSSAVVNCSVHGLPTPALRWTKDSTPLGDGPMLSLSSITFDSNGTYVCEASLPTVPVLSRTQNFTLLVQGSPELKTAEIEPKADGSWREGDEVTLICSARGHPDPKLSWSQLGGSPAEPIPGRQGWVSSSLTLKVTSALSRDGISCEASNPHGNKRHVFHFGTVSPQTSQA

T2: Human CD122 His tagged (human, UniProt P14784 27-240)
T2 construct: also called hCD122; monomeric antigen; not shown: His tag
T2 sequence: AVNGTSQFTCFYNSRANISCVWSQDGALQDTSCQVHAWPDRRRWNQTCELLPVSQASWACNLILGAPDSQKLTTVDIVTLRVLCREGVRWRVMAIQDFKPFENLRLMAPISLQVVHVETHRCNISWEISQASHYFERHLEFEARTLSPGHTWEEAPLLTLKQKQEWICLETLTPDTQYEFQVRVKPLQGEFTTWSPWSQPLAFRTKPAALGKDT

T3: Human CILP2 protein (human, UniProt Q8IUL8 21-1156, limits assumed)
T3 construct: also called cartilage intermediate layer protein 2
T3 sequence (looked up): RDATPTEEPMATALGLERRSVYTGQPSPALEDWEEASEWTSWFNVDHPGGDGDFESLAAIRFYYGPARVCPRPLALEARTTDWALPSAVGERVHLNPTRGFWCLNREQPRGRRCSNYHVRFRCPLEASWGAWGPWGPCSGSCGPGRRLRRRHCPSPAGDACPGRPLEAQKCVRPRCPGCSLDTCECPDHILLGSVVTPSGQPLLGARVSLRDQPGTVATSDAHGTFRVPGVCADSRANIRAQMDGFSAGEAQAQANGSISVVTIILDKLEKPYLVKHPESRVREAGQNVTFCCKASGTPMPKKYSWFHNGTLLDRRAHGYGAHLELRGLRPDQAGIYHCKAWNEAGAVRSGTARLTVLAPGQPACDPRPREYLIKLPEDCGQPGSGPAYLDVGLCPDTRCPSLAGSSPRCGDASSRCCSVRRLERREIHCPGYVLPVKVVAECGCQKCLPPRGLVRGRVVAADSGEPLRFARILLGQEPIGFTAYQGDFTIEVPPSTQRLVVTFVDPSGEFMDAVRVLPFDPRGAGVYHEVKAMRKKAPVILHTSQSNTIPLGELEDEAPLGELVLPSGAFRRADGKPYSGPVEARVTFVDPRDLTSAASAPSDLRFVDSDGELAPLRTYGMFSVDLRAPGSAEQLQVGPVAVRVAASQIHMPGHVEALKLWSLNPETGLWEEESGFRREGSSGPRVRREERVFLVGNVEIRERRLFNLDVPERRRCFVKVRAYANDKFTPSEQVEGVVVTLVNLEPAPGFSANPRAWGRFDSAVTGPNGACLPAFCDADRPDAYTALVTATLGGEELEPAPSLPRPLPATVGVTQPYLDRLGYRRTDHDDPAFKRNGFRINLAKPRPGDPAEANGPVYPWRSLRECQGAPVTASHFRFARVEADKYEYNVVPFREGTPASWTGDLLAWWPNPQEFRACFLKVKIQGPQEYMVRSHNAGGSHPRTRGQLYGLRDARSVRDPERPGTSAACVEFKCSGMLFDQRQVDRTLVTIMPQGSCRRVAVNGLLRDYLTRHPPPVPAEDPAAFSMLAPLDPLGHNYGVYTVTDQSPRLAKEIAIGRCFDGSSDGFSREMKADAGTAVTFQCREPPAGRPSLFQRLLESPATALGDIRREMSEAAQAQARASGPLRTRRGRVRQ

T4: Rhesus CD122 His tag (rhesus monkey, UniProt Q38J85 27-240 (cynomolgus entry))
T4 construct: also called rhCD122; cynomolgus and/or rhesus monkey CD122 His tag; not shown: His tag
T4 sequence: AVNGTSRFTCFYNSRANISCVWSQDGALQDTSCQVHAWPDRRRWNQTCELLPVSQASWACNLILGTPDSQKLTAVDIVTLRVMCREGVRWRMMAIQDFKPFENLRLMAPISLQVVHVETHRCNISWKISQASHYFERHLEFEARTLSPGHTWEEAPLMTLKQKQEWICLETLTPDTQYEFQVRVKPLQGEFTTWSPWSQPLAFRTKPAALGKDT


Tests used:
Human BCAM protein = target: T1, Human BCAM protein; assay: binding ELISA on human BCAM protein, IgG at log10 about 1.1 to 3.0 nM, OD450nm
Human CD122 His tagged [1] = target: T2, Human CD122 His tagged; assay: Biacore, Fab affinity and kinetics on hCD122
Human CILP2 protein = target: T3, Human CILP2 protein; assay: BIACORE SPR, Fab at 62.5, 125, 250, 500 and 1000 nM on human CILP2 protein; Rmax
Rhesus CD122 His tag = target: T4, Rhesus CD122 His tag; assay: Biacore SPR, Fab
Human CD122 His tagged [2] = target: T2, Human CD122 His tagged; assay: Biacore SPR, Fab
Human neudesin protein = target: T5, Human neudesin protein (human, UniProt Q9UMX5 32-172); assay: BIACORE SPR, Fab at 62.5, 125, 250, 500 and 1000 nM on human neudesin protein; Rmax
T5 construct: also called NENF
T5 sequence (Q9UMX5 32-172 limits assumed): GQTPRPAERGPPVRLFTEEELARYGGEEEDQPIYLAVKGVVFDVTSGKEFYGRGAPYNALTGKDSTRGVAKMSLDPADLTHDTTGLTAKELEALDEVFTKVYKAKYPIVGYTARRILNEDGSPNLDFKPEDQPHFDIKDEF

Row | binding result (Human BCAM protein) | Kd (Human CD122 His tagged [1]) [nM] | koff (Human CD122 His tagged [1]) [s⁻¹] | kon (Human CD122 His tagged [1]) [M⁻¹ s⁻¹] | binding result (Human CILP2 protein) | Kd (Rhesus CD122 His tag) [nM] | Kd (Human CD122 His tagged [2]) [nM] | binding result (Human neudesin protein) | Binder
1 | binds |  |  |  |  |  |  |  | MAB14 (antibody, human IgG1, V domains shown, also called clone 14) VH: EVQLLESGGGLVQPGGSLRLSCAASGFSVTSYGVHWIRQAPGKGLEWLGVIWSGGSTDYNAAFISRLTISKDNSKNTVYFQMNSLRAEDTAVYYCARAGDANYDGFAYWGQGTLVTVSS VL: DIQMTQSPSSLSASVGDRVTITCQASQSVSFLYWYQQRPGKAPRLLIYDTSNLASGVPSRFSGSGSGTSYTFTISSLQPEDIATYYCQQWSTYPLTFGQGTKVEIK
2 |  | 5.5 | 0.0034 | 610000 | no binding (tested: 1000 nM) | 4.47 | 5.54 | no binding (tested: 1000 nM) | FAB15 (Fab, V domains shown, 06F11-V optimization variant; also called Fab version of MAB15) VH: EVQLLESGGGLVQPGGSLRLSCAASGFSVTSYGVHWIRQAPGKGLEWLGVIWSGGSTDYNAAFISRLTISKDNSKNTVYFQMNSLRAEDTAVYYCARAGDANYDGFAYWGQGTLVTVSS VL: DIQMTQSPSSLSASVGDRVTITCQASSSVSFMYWYQQRPGKAPRLLIYDTSNLASGVPSRFSGSGSGTSYTFTISSLQPEDIATYYCQQWSTYPLTFGQGTKVEIK
3 |  | 10.7 | 0.0046 | 430000 | no binding (tested: 1000 nM) | 7.93 | 10.7 | no binding (tested: 1000 nM) | FAB17 (Fab, V domains shown, 06F11-V optimization variant; also called Fab version of MAB17) VH: EVQLLESGGGLVQPGGSLRLSCAASGFSVTSYGVHWIRQAPGKGLEWLGVIWSGGSTDYNAAFISRLTISKDNSKNTVYFQMNSLRAEDTAVYYCARAGDYNYDGFAYWGQGTLVTVSS VL: DIQMTQSPSSLSASVGDRVTITCQASQSVSFLYWYQQRPGKAPRLLIYDTSNLASGVPSRFSGSGSGTSYTFTISSLQPEDIATYYCQQWSTYPLTFGQGTKVEIK
4 | binds |  |  |  |  |  |  |  | MAB17 (antibody, human IgG1, V domains shown, also called clone 17) VH: EVQLLESGGGLVQPGGSLRLSCAASGFSVTSYGVHWIRQAPGKGLEWLGVIWSGGSTDYNAAFISRLTISKDNSKNTVYFQMNSLRAEDTAVYYCARAGDYNYDGFAYWGQGTLVTVSS VL: DIQMTQSPSSLSASVGDRVTITCQASQSVSFLYWYQQRPGKAPRLLIYDTSNLASGVPSRFSGSGSGTSYTFTISSLQPEDIATYYCQQWSTYPLTFGQGTKVEIK
5 |  | 4.3 | 0.0037 | 850000 | no binding (tested: 1000 nM) | 3.52 | 4.34 | no binding (tested: 1000 nM) | FAB14 (Fab, V domains shown, 06F11-V optimization variant; also called Fab version of MAB14) VH: EVQLLESGGGLVQPGGSLRLSCAASGFSVTSYGVHWIRQAPGKGLEWLGVIWSGGSTDYNAAFISRLTISKDNSKNTVYFQMNSLRAEDTAVYYCARAGDANYDGFAYWGQGTLVTVSS VL: DIQMTQSPSSLSASVGDRVTITCQASQSVSFLYWYQQRPGKAPRLLIYDTSNLASGVPSRFSGSGSGTSYTFTISSLQPEDIATYYCQQWSTYPLTFGQGTKVEIK
